# In PMC7043024:
# Target: LSD1 (lysine specific demethylase 1), full length (UniProt O60341)
substance,measurement,value
H3K4me 1-21 peptide,"K (M,post) (post-equilibrium apparent Michaelis-Menten constant) of the demethylation of K4meK9 by 200 nM CoREST ternary complex, APO, real-time 1H NMR assay",2.3 µM
same,"K (M,post) (post-equilibrium apparent Michaelis-Menten constant) of the demethylation of K4meK9 by the CoREST ternary complex pre-equilibrated with 5 μM MS275 HDAC inhibitor, real-time 1H NMR assay",9.2 µM
